Assay results published in publication PMC11388503.

Target: T1, procalcitonin (UniProt P01258 26-141)
T1 sequence: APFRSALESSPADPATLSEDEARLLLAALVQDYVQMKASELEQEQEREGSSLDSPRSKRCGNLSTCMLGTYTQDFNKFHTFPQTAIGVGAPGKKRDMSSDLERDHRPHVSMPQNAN
Experiment: electrochemical IDE sensor

Question: Does GGCGCCGTCAAGGCATTACAATTACGGATATGAACTCGAC (ssDNA, 5'-SH (thiol)) [complementary aptamer] bind?
Answer: Result: no binding
